± gives the standard deviation of the averaged measurements.
B1: library; a variant is named by its letters at N, in order (parent)
chain: GCUGUCACCGAGAAACUGUGAAGUAUAUCUUAAACCUGGGCACUUAAAAGAUAUAUGGAGUUAGUAGUGCAACCUGCUCGGUCUGAUGAGUCCNNNNNNGGACGAAACAGC

Key:
cyclic di-GMP [1] = variants of: B1; experiment: normalized RNA/DNA level without ligand (relative to sTRSVctl = 100) (log10 (% of sTRSVctl)); HEK293T; ligand: cyclic di-GMP (c-di-GMP-II aptamer); higher = less ribozyme self-cleavage, higher mRNA level; settings: reporter: mCherry (pCS4076), ligand present: no
Summary of the method: (§1)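 Total RNA, extracted with EDTA 72 h after HEK293T cells were transfected with 4 µg per 6-well well of reporter-linked ribozyme switch library plasmids, was reverse-transcribed, amplified, barcoded and sequenced. Ligand, if used, was added 1 h before transfection. RNA level was derived from RNA reads divided by DNA reads and normalized to a spiked-in non-cleaving sequence or to the top sequences. This was multiplied by 100 and log10-transformed, with the top set of 25 sequences and a ≥100 DNA read minimum.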

cyclic di-GMP [2] = variants of: B1; experiment: normalized RNA/DNA level with ligand (relative to sTRSVctl = 100) (log10 (% of sTRSVctl)); HEK293T; ligand: cyclic di-GMP (c-di-GMP-II aptamer); ligand concentration (+) RNA-Seq: 1 mM; higher = less ribozyme self-cleavage, higher mRNA level; settings: reporter: mCherry (pCS4076), ligand present: yes
Summary of the method: as §1

Row | Variant | normalized RNA/DNA level without ligand (log10) (cyclic di-GMP [1]) | normalized RNA/DNA level with ligand (log10) (cyclic di-GMP [2])
1 | GACGUU | 1.619 ± 0.0079 | 1.81 ± 0.12
2 | GCAAGG | 1.41 ± 0.14 | 1.57 ± 0.11
3 | GUAGGU | 1.6 ± 0.028 | 1.8 ± 0.1
4 | GUCACA | 1.663 ± 0.0013 | 1.77 ± 0.17
5 | GGUAGA | 1.34 ± 0.04 | 1.55 ± 0.1
6 | GUUGCC | 1.76 ± 0.013 | 1.87 ± 0.1
7 | UCCCCC | 1.83 ± 0.088 | 1.92 ± 0.13
8 | AGGGGC | 1.69 ± 0.1 | 1.83 ± 0.091
9 | CCCGAG | 1.56 ± 0.065 | 1.76 ± 0.11
10 | AGGCCU | 1.768 ± 0.013 | 1.89 ± 0.099
11 | GUGAAC | 1.5 ± 0.08 | 1.69 ± 0.13
12 | CUCACC | 1.7 ± 0.079 | 1.825 ± 0.013
13 | CUCACA | 1.66 ± 0.033 | 1.83 ± 0.13
14 | ACCGGC | 1.784 ± 0.0037 | 1.92 ± 0.12
15 | AUACCC | 1.75 ± 0.043 | 1.89 ± 0.086
16 | GAGCGG | 1.88 ± 0.079 | 1.96 ± 0.096
17 | UAAAGU | 1.54 ± 0.076 | 1.77 ± 0.048
18 | CAGGCU | 1.8 ± 0.012 | 1.9 ± 0.11
19 | CUCCAG | 1.73 ± 0.07 | 1.86 ± 0.055
20 | AUACUG | 1.56 ± 0.049 | 1.73 ± 0.086
21 | GGCACA | 1.69 ± 0.024 | 1.8 ± 0.12
22 | UCUCCC | 1.81 ± 0.073 | 1.92 ± 0.14
23 | UGGAGA | 1.58 ± 0.082 | 1.76 ± 0.069
24 | GUACUG | 1.58 ± 0.033 | 1.78 ± 0.081

Row | Variant | normalized RNA/DNA level without ligand (log10) (cyclic di-GMP [1]) | normalized RNA/DNA level with ligand (log10) (cyclic di-GMP [2])
25 | GUACUA | 1.61 ± 0.036 | 1.8 ± 0.065
26 | AGGGAA | 1.41 ± 0.11 | 1.53 ± 0.061
27 | CGUUAC | 1.57 ± 0.059 | 1.74 ± 0.064
28 | GUGGAG | 1.61 ± 0.059 | 1.71 ± 0.092
29 | GACUGU | 1.654 ± 0.0065 | 1.8 ± 0.15
30 | AGCCGC | 1.75 ± 0.033 | 1.89 ± 0.13
31 | GCCUAC | 1.55 ± 0.059 | 1.72 ± 0.047
32 | CAUACU | 1.51 ± 0.044 | 1.7 ± 0.12
33 | GAUAGG | 1.573 ± 0.0085 | 1.73 ± 0.087
34 | CCAUGA | 1.52 ± 0.033 | 1.72 ± 0.087
35 | CGGGAU | 1.49 ± 0.05 | 1.64 ± 0.13
36 | UUGACG | 1.77 ± 0.025 | 1.88 ± 0.1
37 | ACGGGU | 1.42 ± 0.083 | 1.58 ± 0.092
38 | ACGGGG | 1.693 ± 0.015 | 1.82 ± 0.1
39 | AGUUGG | 1.63 ± 0.043 | 1.8 ± 0.11
40 | UCCAUC | 1.7 ± 0.0059 | 1.8 ± 0.13
41 | CCUGAC | 1.649 ± 0.011 | 1.78 ± 0.11
42 | GCCAAA | 1.49 ± 0.1 | 1.68 ± 0.08
43 | AUGCUC | 1.74 ± 0.052 | 1.85 ± 0.046
44 | ACAUGU | 1.541 ± 0.01 | 1.69 ± 0.091
45 | UUAGAG | 1.63 ± 0.0024 | 1.76 ± 0.047
46 | CGCCGU | 1.77 ± 0.049 | 1.87 ± 0.063
47 | GGUGUC | 1.66 ± 0.019 | 1.8 ± 0.1
48 | AGUCGG | 1.8 ± 0.051 | 1.87 ± 0.082

Row | Variant | normalized RNA/DNA level without ligand (log10) (cyclic di-GMP [1]) | normalized RNA/DNA level with ligand (log10) (cyclic di-GMP [2])
49 | CGCCCU | 1.777 ± 0.0073 | 1.87 ± 0.077
50 | GUUGAA | 1.44 ± 0.083 | 1.65 ± 0.12
51 | AAGGAC | 1.53 ± 0.1 | 1.73 ± 0.072
52 | UGUUUA | 1.744 ± 0.0073 | 1.89 ± 0.072
53 | GAUAUA | 1.53 ± 0.032 | 1.7 ± 0.1
54 | CAACGA | 1.56 ± 0.063 | 1.73 ± 0.11
55 | GCACCG | 1.72 ± 0.037 | 1.86 ± 0.11
56 | UUUUGU | 1.74 ± 0.035 | 1.87 ± 0.15
57 | CCUAGG | 1.79 ± 0.045 | 1.84 ± 0.13
58 | CGGCUC | 1.782 ± 0.0084 | 1.85 ± 0.085
59 | CGGCUG | 1.74 ± 0.087 | 1.87 ± 0.12
60 | GGGUCA | 1.828 ± 0.013 | 1.91 ± 0.16
61 | GUGACG | 1.66 ± 0.021 | 1.77 ± 0.11
62 | UAUUGG | 1.75 ± 0.061 | 1.87 ± 0.076
63 | CAGGGG | 1.63 ± 0.032 | 1.74 ± 0.075
64 | AGGUUA | 1.54 ± 0.037 | 1.64 ± 0.18
65 | CUACUA | 1.47 ± 0.14 | 1.64 ± 0.072
66 | UCCUUA | 1.65 ± 0.025 | 1.83 ± 0.15
67 | AGUGGA | 1.44 ± 0.11 | 1.62 ± 0.086
68 | CGACAG | 1.8 ± 0.023 | 1.87 ± 0.091
69 | AGGAAC | 1.54 ± 0.12 | 1.68 ± 0.12
70 | UGUAGG | 1.72 ± 0.035 | 1.85 ± 0.072
71 | GGAGUC | 1.55 ± 0.046 | 1.79 ± 0.051
72 | UUUCGC | 1.789 ± 0.0088 | 1.89 ± 0.14

Row | Variant | normalized RNA/DNA level without ligand (log10) (cyclic di-GMP [1]) | normalized RNA/DNA level with ligand (log10) (cyclic di-GMP [2])
73 | UUCCAG | 1.76 ± 0.022 | 1.89 ± 0.093
74 | UGAACC | 1.78 ± 0.022 | 1.86 ± 0.12
75 | GCUCAA | 1.6 ± 0.023 | 1.79 ± 0.072
76 | CAAGGC | 1.705 ± 0.0097 | 1.82 ± 0.12
77 | AAUUUU | 1.73 ± 0.033 | 1.85 ± 0.12
78 | UCAUGC | 1.71 ± 0.081 | 1.89 ± 0.045
79 | GUUAGU | 1.66 ± 0.017 | 1.8 ± 0.13
80 | AUCUCA | 1.666 ± 0.0097 | 1.78 ± 0.16
81 | GACCCA | 1.75 ± 0.02 | 1.85 ± 0.093
82 | CAUAUG | 1.718 ± 0.017 | 1.81 ± 0.053
83 | UAUUUU | 1.73 ± 0.062 | 1.84 ± 0.13
84 | GUCGGC | 1.65 ± 0.067 | 1.83 ± 0.053
85 | CUGGAG | 1.604 ± 0.006 | 1.77 ± 0.099
86 | GUCUCA | 1.7 ± 0.035 | 1.83 ± 0.14
87 | UUAAGG | 1.77 ± 0.047 | 1.9 ± 0.13
88 | UGACGA | 1.595 ± 0.015 | 1.78 ± 0.091
89 | UGAAAC | 1.705 ± 0.017 | 1.84 ± 0.062
90 | CGAACG | 1.75 ± 0.056 | 1.9 ± 0.089
91 | UUUCAA | 1.712 ± 0.0062 | 1.86 ± 0.092
92 | UAAGCU | 1.7 ± 0.031 | 1.83 ± 0.097
93 | AGUCAC | 1.67 ± 0.062 | 1.81 ± 0.049
94 | UCGCUC | 1.742 ± 0.011 | 1.87 ± 0.14
95 | CACGUU | 1.729 ± 0.0022 | 1.86 ± 0.088
96 | CCAGCU | 1.682 ± 0.011 | 1.86 ± 0.084

Row | Variant | normalized RNA/DNA level without ligand (log10) (cyclic di-GMP [1]) | normalized RNA/DNA level with ligand (log10) (cyclic di-GMP [2])
97 | CUGAAG | 1.59 ± 0.018 | 1.73 ± 0.03
98 | CCGCUG | 1.28 ± 0.15 | 1.56 ± 0.12
99 | GCGGGG | 1.74 ± 0.035 | 1.83 ± 0.12
100 | CUUCGU | 1.8 ± 0.04 | 1.87 ± 0.094
101 | GAGGGA | 1.65 ± 0.027 | 1.74 ± 0.083
102 | UUACGA | 1.77 ± 0.046 | 1.87 ± 0.11
103 | CCAUAG | 1.4 ± 0.17 | 1.66 ± 0.043
104 | CCAUAU | 1.55 ± 0.041 | 1.73 ± 0.071
105 | GAUGCG | 1.82 ± 0.063 | 1.89 ± 0.13
106 | UUUUUC | 1.78 ± 0.052 | 1.88 ± 0.14
107 | AUAAGG | 1.54 ± 0.057 | 1.71 ± 0.12
108 | GUAAUU | 1.689 ± 0.016 | 1.78 ± 0.054
109 | UAAUAU | 1.64 ± 0.017 | 1.78 ± 0.11
110 | GUGCAA | 1.64 ± 0.046 | 1.77 ± 0.084
111 | CGUGUA | 1.4 ± 0.062 | 1.56 ± 0.13
112 | CGUGUU | 1.6 ± 0.033 | 1.78 ± 0.12
113 | CAACUG | 1.75 ± 0.034 | 1.82 ± 0.13
114 | CUGUGU | 1.75 ± 0.027 | 1.86 ± 0.11
115 | AUUAAC | 1.655 ± 0.015 | 1.76 ± 0.15
116 | UCAACC | 1.78 ± 0.044 | 1.9 ± 0.067

— the supplement of paper PMC6757056
